What is called Kd is the equilibrium constant for the complex coming apart.

This note sets out measurements from paper PMC7932109 (Science (New York, N.y.), 2021).

Sequences and labels used below:
B1: VHH V (VHH)
VHH: QVQLVETGGGLVQPGGSLRLSCAASGFTFSSYAMGWARQVPGKGLEWVSYIYSDGSTEYQDSVKGRFTISRDNAKSTVYLQMNSLKPEDTAVYYCATEGSLGGWGRDFGSWGQGTQVTVSS
notes: also called nanobody V; source: E. coli WK6, periplasmic extract, purified (Ni-NTA, desalting or gel filtration)
B2: VHH U (VHH)
VHH: QVQLVESGGGLVQPGGSLRLSCAASGFTLDYYAIGWFRQAPGKEREGVSCISSSGGSTHFADSVKGRFTISRDNAKNTVYLQMNSLIPEDTAVYYCAAQSGSYYWCGSDWHEYEYWGQGTQVTVSS
notes: also called nanobody U; source: E. coli WK6, periplasmic extract, purified (Ni-NTA, desalting or gel filtration)
B3: VHH W (VHH)
VHH: QVQLVESGGGLVQPGGSLRLSCAASGFTLDYYAIGWFRQAPGKEREGVSCISSSGDSTHYVDSVKGRFTISRDNAKNTVYLQMNSLKPEDTAVYYCAAQSGSYYWCGSDWHEYDYRGQGTQVTVSS
notes: also called nanobody W; source: E. coli WK6, periplasmic extract, purified (Ni-NTA, desalting or gel filtration)

For this assay, the target named is SARS-CoV-2 spike receptor binding domain (RBD), residues 319 to 541 (SARS-CoV-2, UniProt P0DTC2, biotinylated for SPR; DyLight 488 (NHS ester) for the ACE2-RBD binding assay; no label told for ELISA and crystals). In words: SPR. To be noted: both partners purified.
B1 showed a Kd of 9 nM.
The same measure for B2: 21 nM; for B3: 22 nM.
